{
  "source": "paper PMC5554461",
  "biological_target": "soluble 2-domain CD4 (2dCD4)",
  "test": "BLI",
  "data": [
    {"substance": "YU2(R456K).SOSIP.664 (from UniProt P35961 499-843) (complex)", "values": [
      {"measurement": "fold reduction of the on-rate against YU2.SOSIP.664", "value": 2, "unit": "fold"}
    ]}
  ]
}
